Reference: publication PMC3684361

Target: TET2 catalytic domain (TET2CD: a.a. 916-1921), recombinant from Sf9
Experiment: pull-down

B1: OGT, full-length, recombinant from Sf9 (enzyme)
chain: MASSVGNVADSTEPTKRMLSFQGLAELAHREYQAGDFEAAERHCMQLWRQEPDNTGVLLLLSSIHFQCRRLDRSAHFSTLAIKQNPLLAEAYSNLGNVYKERGQLQEAIEHYRHALRLKPDFIDGYINLAAALVAAGDMEGAVQAYVSALQYNPDLYCVRSDLGNLLKALGRLEEAKACYLKAIETQPNFAVAWSNLGCVFNAQGEIWLAIHHFEKAVTLDPNFLDAYINLGNVLKEARIFDRAVAAYLRALSLSPNHAVVHGNLACVYYEQGLIDLAIDTYRRAIELQPHFPDAYCNLANALKEKGSVAEAEDCYNTALRLCPTHADSLNNLANIKREQGNIEEAVRLYRKALEVFPEFAAAHSNLASVLQQQGKLQEALMHYKEAIRISPTFADAYSNMGNTLKEMQDVQGALQCYTRAIQINPAFADAHSNLASIHKDSGNIPEAIASYRTALKLKPDFPDAYCNLAHCLQIVCDWTDYDERMKKLVSIVADQLEKNRLPSVHPHHSMLYPLSHGFRKAIAERHGNLCLDKINVLHKPPYEHPKDLKLSDGRLRVGYVSSDFGNHPTSHLMQSIPGMHNPDKFEVFCYALSPDDGTNFRVKVMAEANHFIDLSQIPCNGKAADRIHQDGIHILVNMNGYTKGARNELFALRPAPIQAMWLGYPGTSGALFMDYIITDQETSPAEVAEQYSEKLAYMPHTFFIGDHANMFPHLKKKAVIDFKSNGHIYDNRIVLNGIDLKAFLDSLPDVKIVKMKCPDGGDNADSSNTALNMPVIPMNTIAEAVIEMINRGQIQITINGFSISNGLATTQINNKAATGEEVPRTIIVTTRSQYGLPEDAIVYCNFNQLYKIDPSTLQMWANILKRVPNSVLWLLRFPAVGEPNIQQYAQNMGLPQNRIIFSPVAPKEEHVRRGQLADVCLDTPLCNGHTTGMDVLWAGTPMVTMPGETLASRVAASQLTCLGCLELIAKNRQEYEDIAVKLGTDLEYLKKVRGKVWKQRISSPLFNTKQYTMELERLYLQMWEHYAAGNKPDHMIKPVEVTESA
- stoichiometry N: 1
